US20100240040A1 (INSTITUT PASTEUR, published 2010)
One block for each binder: values may come before it. Where no end group is shown, it is not given here. Bodipy = not defined here

Tests used:
[1] = biological target: the molecule itself; experiment: circular dichroism and gel filtration (data not shown)
[2] = biological target: NEMO (endogenous, in 70Z/3-C3 cells) (UniProt O88522 1-412, limits assumed); experiment: cell-based or functional assay
spCC2-LZ = biological target: T1, spCC2-LZ (murine); experiment: fluorescence anisotropy, 10 µM labelled peptide titrated with spCC2-LZ
T1 construct: also called MOD; minimal oligomerization domain of NEMO
T1 chain: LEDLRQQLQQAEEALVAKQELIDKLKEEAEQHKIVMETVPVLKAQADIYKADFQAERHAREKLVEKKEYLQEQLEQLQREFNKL
From the text: The concentration of spCC2-LZ was determining by amino acid analysis (Vinolo et al; 2006).

Chain of NEMO (endogenous, in 70Z/3-C3 cells) (O88522 whole entry): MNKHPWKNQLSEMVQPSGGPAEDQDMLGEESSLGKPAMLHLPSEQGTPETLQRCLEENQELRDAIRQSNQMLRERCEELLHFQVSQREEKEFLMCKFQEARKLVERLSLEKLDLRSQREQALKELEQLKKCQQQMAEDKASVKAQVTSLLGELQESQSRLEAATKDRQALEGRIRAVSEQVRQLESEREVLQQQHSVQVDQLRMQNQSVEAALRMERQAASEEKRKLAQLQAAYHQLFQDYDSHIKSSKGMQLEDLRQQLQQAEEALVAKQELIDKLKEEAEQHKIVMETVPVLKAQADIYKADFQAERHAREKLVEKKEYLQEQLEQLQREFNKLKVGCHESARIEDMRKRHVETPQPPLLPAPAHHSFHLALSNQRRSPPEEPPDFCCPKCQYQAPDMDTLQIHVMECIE

Binder: LKAQADIYKARFQAERHAREK (also called tag-free DR NLM; NLM-DR) [DR NLM]
binding result [1]: no binding (tested: up to 100 µM)

IC50 of NF-κB activity (β-galactosidase reporter in 70Z/3-C3 cells after PMA, IL-1 or LPS) [2]: 0.9 µM | Kd (spCC2-LZ): 17 µM
B1: BA-DR NLM (peptide)
peptide: C(Bodipy)RQIKIWFQNRRMKWKKLKAQADIYKARFQAERHAREK
modifications: reading uncertain
notes: also called BA-NLM-DR; DR NLM fused to its N-terminus with the antennapedia peptide

B2: NLM (peptide)
peptide: LKAQADIYKADFQAERHAREK
notes: also called tag-free NLM; NLM peptide of NEMO
binding result [1]: no binding (tested: up to 100 µM)

Kd (spCC2-LZ): 21 µM
B3: BR7-DR NLM (peptide)
peptide: C(Bodipy)RRRRRRRLKAQADIYKARFQAERHAREK
modifications: reading uncertain
notes: also called DR NLM fused to the poly R7 peptide
